Data taken from the supplement of paper PMC10899765.

What was measured:
Settings in all cases: 20 nM; 72 h
[1] = tested on: MCF10A; test: 5+ nucleoli phenotype percent effect (relative to siNT 0% and siKIF11 100%); higher = more cells with five or more nucleoli
Protocol: (§1)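 After 72 h, cells were fixed and stained with Hoechst and anti-fibrillarin, and nucleoli per nucleus were counted with CellProfiler. Values are plate-adjusted percent effect for the one-nucleolus and 5+ nucleoli phenotypes, normalised to siNT (0%) and to the positive controls siNOL11 or siKIF11 (100%), as the mean of biological triplicates. Percent viability is the nuclei count relative to siNT.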

[2] = tested on: MCF10A; test: percent viability (nuclei count relative to siNT); higher = more viable cells
Protocol: as §1

[3] = tested on: MCF10A; test: one-nucleolus phenotype percent effect (relative to siNT 0% and siNOL11 100%); higher = more cells with one nucleolus (ribosome biogenesis inhibition)
Protocol: as §1

Sequence	5+ nucleoli phenotype percent effect [1] [%]	percent viability [2] [%]	one-nucleolus phenotype percent effect [3] [%]
GGCCACUGAGUCAGCACCA [hsa-miR-4252]	5.41	46.1	-3.69
UCGGCCUGGGGAGGAGGAAGGG [hsa-miR-7107-5p]	26.1	77.4	-28.2
UCUCUCUGACUCCAUGGCA [hsa-miR-6817-3p]	1.83	39.3	1.99
CCUCUAAAGGGAAGCGCUUUCU [hsa-miR-520f-5p]	57.3	119	-26.3
AGGCAUUGACUUCUCACUAGCU [hsa-miR-1256]	2.63	32.9	1.57
UACUGCAGACAGUGGCAAUCA [hsa-miR-509-5p]	5.43	48.8	7.14
AGGAGGAAUUGGUGCUGGUCUU [hsa-miR-766-5p]	-33	5.17	33.8
UCAAAUGCAGAUCCUGACUUC [hsa-miR-7853-5p]	14	42.1	-15.6
CACCCCCUGUUUCCUGGCCCAC [hsa-miR-4640-3p]	31.4	127	-11.3
GGUGGGAUGGAGAGAAGGUAUGAG [hsa-miR-4769-5p]	33.7	77.6	-13.3
UGGGAAAGACAAACUCAGAGUU [hsa-miR-6733-5p]	8.82	23.6	5.71
CAGCGGAGCCUGGAGAGAAGG [hsa-miR-7846-3p]	-18.4	41.6	11.9
AACAUUCAACGCUGUCGGUGAGU [hsa-miR-181a-5p]	0.638	76.4	2.31
AAACUAAUCUCUACACUGCUGC [hsa-miR-3129-3p]	5.92	98.8	-4.83
CUUCCUCGUCUGUCUGCCCC [hsa-miR-1238-3p]	-4.82	74.5	13.2
CAGGGCAGGGAAGGUGGGAGAG [hsa-miR-6879-5p]	36.6	67.3	-11.1
CGACCUCGGCGACCCCUCACU [hsa-miR-6790-3p]	-13.8	45.6	8.29
GAAAGUACAGAUCGGAUGGGU [hsa-miR-8054]	24.3	55.8	-3.34
AGAAGUAACUACGGUUUUUGCA [hsa-miR-548ao-5p]	27.5	74.5	-16.5
GGUAUCCGUUUGGGGAUGGU [hsa-miR-3713]	-27.6	23.5	11.4

Sequence	5+ nucleoli phenotype percent effect [1] [%]	percent viability [2] [%]	one-nucleolus phenotype percent effect [3] [%]
UAAAGUGCUGACAGUGCAGAU [hsa-miR-106b-5p]	5.03	91.2	-11.2
AGUGCCUGAGGGAGUAAGAG [hsa-miR-550a-3-5p]	-17.5	79.3	3.47
CCAAAACUGCAGUUACUUUUGC [hsa-miR-548o-3p]	27.5	99.8	-18
ACCUCCUGUGUGCAUGGAUUA [hsa-miR-660-3p]	-17.5	37.2	16.9
UGACACGGAGGGUGGCUUGGGAA [hsa-miR-4462]	14.9	82.7	-18.7
CUCACUGAUCAAUGAAUGCA [hsa-miR-181b-2-3p]	9.62	144	-19.1
UGUCACCCGCUCCUUGCCCAG [hsa-miR-6879-3p]	-23.3	47.6	3.65
AAACUAAUAUACCCAUAUUCUG [hsa-miR-5583-5p]	35.5	115	-23.4
GAAGGACACUGGUGUCAACGGCU [hsa-miR-8080]	19.9	118	-9.1
UCCCUCUCCCACCCCUUGCAG [hsa-miR-6892-3p]	42.4	52.2	-29
GAAAUCAAGCGUGGGUGAGACC [hsa-miR-551b-5p]	40.3	57.5	-15.5
GAUCCAUCUCUGCCUGUAUUGGC [hsa-miR-7151-5p]	-8.39	80.6	5.88
AUAUAAUACAACCUGCUAAGUG [hsa-miR-374b-5p]	35.9	103	-13.3
AGGGAAAAAAAAAAGGAUUUGUC [hsa-miR-4668-5p]	61.6	65	-20.9
AAUCAUUCACGGACAACACUU [hsa-miR-382-3p]	36.3	97.5	-25.4
GAAGACUUCUUGGAUUACAGGGG [hsa-miR-8087]	-8.56	112	2.61
ACACUGUCCCCUUCUCCCCAG [hsa-miR-6760-3p]	56.3	92.8	-27.2
AUCGUGCAUCCCUUUAGAGUGU [hsa-miR-517b-3p]	-20.3	35.2	14.6
GAUAUUCAGAGGCUAGGUGG [hsa-miR-6074]	-1.31	34.5	-6.04
CUCUGAUCGCCCUCUCAGCUC [hsa-miR-3192-3p]	-48.8	34.9	57.6

Sequence	5+ nucleoli phenotype percent effect [1] [%]	percent viability [2] [%]	one-nucleolus phenotype percent effect [3] [%]
GUGUUCUCUGAUGGACAG [hsa-miR-4273]	10.3	49.3	-6.59
CAGCCCGGAUCCCAGCCCACUU [hsa-miR-3940-3p]	-8.21	33.5	2.08
UGAUUGUCCAAACGCAAUUCU [hsa-miR-219-5p]	14.5	82.1	-9.06
CGCCCCUCCUGCCCCCACAG [hsa-miR-4749-3p]	64.3	115	-18.4
AAGCGACCAUGAUGUAACUUCA [hsa-miR-4670-5p]	-4.37	49.2	14
UCUGGGCACAGGCGGAUGGACAGG [hsa-miR-5189]	-2.97	34.5	29.3
AGCAGGGCUGGGGAUUGCA [hsa-miR-6132]	-31	20.5	57.1
GGGAGGUGUGAUCUCACACUCG [hsa-miR-3689d]	10.8	9.66	24.8
GUGGAAAGCAUGCAUCCAGGGUGU [hsa-miR-3978]	-30.5	61.1	15
UGUGUCACUCGAUGACCACUGU [hsa-miR-597]	-3.83	47.8	13.9
CUCCUCCACAGCCCCUGCUCAU [hsa-miR-6792-3p]	-21.5	56.4	-4.72
AAAGUGCUUCCUUUUUGAGGG [hsa-miR-520e]	57.7	84.4	-14.9
AGGUGCUCCAGGCUGGCUCACA [hsa-miR-3907]	-22.2	4.87	27.7
AACUAGCUCUGUGGAUCCUGAC [hsa-miR-4661-5p]	-18.4	13.9	21.8
UAGGGGCAGCAGAGGACCUGGG [hsa-miR-4688]	8.84	17.5	23.4
GGUGGAUAUUCCUUCUAUGUU [hsa-miR-376c-5p]	-0.73	20.7	21.9
CCUGAGAAAAGGGCCAA [hsa-miR-4251]	-4.33	31.3	15.3
AUCAUGAUGGGCUCCUCGGUGU [hsa-miR-433]	-11.3	63.2	-2.79
CAAAGUGCCUCCCUUUAGAGUG [hsa-miR-519d]	62.9	72.3	-20.2
